# Measured values as given in patent publication US20110294167.
# Experiments:
# [1] = molecular target: T7 gp4 K318A primase (Bacteriophage T7) (UniProt P03692); conditions: amplification with Phi29 and T7 DNA polymerase; 10 mM MgCl2, NTPs, 30 C
# [2] = system: T1, ORF904 primase (residues 1-370) (Sulfolobus islandicus); conditions: primer synthesis inferred from primer-free amplification with Phi29, 1500 ng primase vs Phi29 only; 10 mM MgCl2, 1 mM ATP, 30 C
# T1 sequence: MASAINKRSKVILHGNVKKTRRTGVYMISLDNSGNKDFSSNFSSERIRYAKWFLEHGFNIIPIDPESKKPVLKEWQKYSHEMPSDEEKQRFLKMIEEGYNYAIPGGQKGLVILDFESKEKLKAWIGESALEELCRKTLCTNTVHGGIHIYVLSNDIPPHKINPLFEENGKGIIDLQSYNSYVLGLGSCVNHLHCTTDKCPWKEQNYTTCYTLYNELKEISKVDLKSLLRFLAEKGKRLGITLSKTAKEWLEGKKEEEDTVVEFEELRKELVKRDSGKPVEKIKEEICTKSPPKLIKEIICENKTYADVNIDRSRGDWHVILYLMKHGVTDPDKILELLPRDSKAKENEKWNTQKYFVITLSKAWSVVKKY
substance,measurement,setting,value
M13 ssDNA (M13mp18),activity,[1],4000 fold
same,activity,[2],13 fold
